Assay results from patent EP4810052A2 (Gubra A/S, dated 2026).
Residue numbers refer to the chain shown, from its start. Where two headings read alike, the source gives them in different places. Blank lines part the entries; values can stand above or below the binder they belong to. Starred links: 1 amine or outer side, 2 acyl side, 3 side chain; linkers in the order of their positions; H or OH if unused. Non-standard residues stand in square brackets, D forms with d. Groups on a side chain read outwards from the residue. No end group written: not given here. *: point of attachment. C20 diacid = O=C(O)CCCCCCCCCCCCCCCCCCC(=O)*; γGlu = O=C(O)[C@H](CCC(=O)[*:2])N[*:1]; NMeI = CC[C@H](C)[C@H](NC)C(=O)O; Nle = CCCC[C@H](N)C(=O)O; lip = not defined here; AEEA = NCCOCCOCC(=O)O; Aib = CC(C)(N)C(=O)O

Assays:
Assay in all cases: cell-based or functional assay
[1] = target: T1, human corticotropin-releasing hormone receptor 1 (human, UniProt P34998 24-415)
T1 sequence (looked up): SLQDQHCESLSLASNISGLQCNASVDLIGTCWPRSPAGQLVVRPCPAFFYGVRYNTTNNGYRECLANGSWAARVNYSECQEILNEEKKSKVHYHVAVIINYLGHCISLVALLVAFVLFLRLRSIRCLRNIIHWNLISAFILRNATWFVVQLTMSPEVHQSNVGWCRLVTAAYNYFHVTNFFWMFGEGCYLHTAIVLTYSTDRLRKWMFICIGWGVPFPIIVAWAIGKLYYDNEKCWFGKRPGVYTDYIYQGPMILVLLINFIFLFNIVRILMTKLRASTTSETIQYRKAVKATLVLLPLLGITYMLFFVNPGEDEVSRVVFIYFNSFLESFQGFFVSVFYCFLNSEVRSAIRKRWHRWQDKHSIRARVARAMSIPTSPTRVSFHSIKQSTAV

[2] = target: T1, human corticotropin-releasing hormone …; remark: listed apart in the source
porcine CRH receptor 1 = porcine CRH receptor 1 (pig)
rat CRH receptor 1 = target: T2, rat CRH receptor 1 (rat, UniProt P35353 24-415)
T2 sequence (looked up): T1 sequence (looked up) with H6R, S9N, A13T, I16V, M153V, G163A, I209V, Y229H, H356R

mouse CRH receptor 1 = target: T3, mouse CRH receptor 1 (mouse, UniProt P35347 24-415)
T3 sequence (looked up): T1 sequence (looked up) with H6Q, I16V, V95I, M153V, G163A, I209V, H356R

[3] = target: T1, human corticotropin-releasing hormone …; remark: listed apart in the source
[4] = target: T1, human corticotropin-releasing hormone …; remark: listed apart in the source

B1: SEQ ID NO: 238, PVLSLDVPIGLLQILLSQARARAAREQA[K*][Aib]NAEI[Nle]AEV(NH2) (peptide)
peptide: PVLSLDVPIGLLQILLSQARARAAREQAK[Aib]NAEI[Nle]AEV-NH2
modifications: not fully specified (residue 29); printed as PVLSLDVPIGLLQILLSQARARAAREQA[K*][Aib]NAEI[Nle]AEV(NH_2); also: lipid and spacer on Lys29 not given here
hCRHR1 EC50 (nM); HTRF cAMP assay, CHO-K1 cells stably expressing hCRHR1 [1]: > 5000 nM
Stable EC50 (nM), hCRHR1; cAMP assay, stable CHO-K1 cells [2]: > 5000 nM
Transient cell system EC50 (nM), hCRHR1; cAMP assay, transiently transfected CHO-K1 cells [2]: > 5000 nM
Transient cell system EC50 (nM), pCRHR1; cAMP assay, transiently transfected CHO-K1 cells (porcine CRH receptor 1): > 5000 nM
Transient cell system EC50 (nM), rCRHR1; cAMP assay, transiently transfected CHO-K1 cells (rat CRH receptor 1): > 1000 nM
Transient cell system EC50 (nM), mCRHR1; cAMP assay, transiently transfected CHO-K1 cells (mouse CRH receptor 1): 323 nM

B2: SEQ ID NO: 6, [MeI]VLSLDVPIGLLQILLEQARARAAREQAT[K*]NAEILAEV(NH2) (peptide)
peptide: [NMeI]VLSLDVPIGLLQILLEQARARAAREQATKNAEILAEV-NH2
modifications: not fully specified (residue 30); printed as [MeI]VLSLDVPIGLLQILLEQARARAAREQAT[K*]NAEILAEV(NH_2); also: lipid and spacer on Lys30 not given here
hCRHR1 EC50 (nM); HTRF cAMP assay, CHO-K1 cells stably expressing hCRHR1 [3]: > 5000 nM
Stable EC50 (nM), hCRHR1; cAMP assay, stable CHO-K1 cells [2]: > 5000 nM
Transient cell system EC50 (nM), hCRHR1; cAMP assay, transiently transfected CHO-K1 cells [2]: > 1000 nM
Transient cell system EC50 (nM), pCRHR1; cAMP assay, transiently transfected CHO-K1 cells (porcine CRH receptor 1): > 5000 nM
Transient cell system EC50 (nM), rCRHR1; cAMP assay, transiently transfected CHO-K1 cells (rat CRH receptor 1): 275 nM
Transient cell system EC50 (nM), mCRHR1; cAMP assay, transiently transfected CHO-K1 cells (mouse CRH receptor 1): 71 nM
hCRHR1 EC50 (nM); HTRF cAMP assay, CHO-K1 cells stably expressing hCRHR1 [4]: > 5000 nM

B3: SEQ ID NO: 16, [MeI]VLSLDVPIGLLQILLEQARARAAREQA[K*]TN[Aib]EILAEV(NH2) (peptide)
peptide: [NMeI]VLSLDVPIGLLQILLEQARARAAREQAK(lip)TN[Aib]EILAEV-NH2
modifications: reading uncertain; also: printed as [MeI]VLSLDVPIGLLQILLEQARARAAREQA[K*]TN[Aib]EILAEV(NH2)
hCRHR1 EC50 (nM); HTRF cAMP assay, CHO-K1 cells stably expressing hCRHR1 [3]: > 5000 nM
Stable EC50 (nM), hCRHR1; cAMP assay, stable CHO-K1 cells [2]: > 5000 nM
Transient cell system EC50 (nM), hCRHR1; cAMP assay, transiently transfected CHO-K1 cells [2]: > 1000 nM
Transient cell system EC50 (nM), pCRHR1; cAMP assay, transiently transfected CHO-K1 cells (porcine CRH receptor 1): > 5000 nM
Transient cell system EC50 (nM), rCRHR1; cAMP assay, transiently transfected CHO-K1 cells (rat CRH receptor 1): 256 nM
Transient cell system EC50 (nM), mCRHR1; cAMP assay, transiently transfected CHO-K1 cells (mouse CRH receptor 1): 76 nM

The next lines start with the values.

hCRHR1 EC50 (nM); HTRF cAMP assay, CHO-K1 cells stably expressing hCRHR1 [1]: > 5000 nM
hCRHR1 EC50 (nM); HTRF cAMP assay, CHO-K1 cells stably expressing hCRHR1 [3]: > 5000 nM
Stable EC50 (nM), hCRHR1; cAMP assay, stable CHO-K1 cells [2]: > 5000 nM
Transient cell system EC50 (nM), hCRHR1; cAMP assay, transiently transfected CHO-K1 cells [2]: > 1000 nM
Transient cell system EC50 (nM), pCRHR1; cAMP assay, transiently transfected CHO-K1 cells (porcine CRH receptor 1): > 5000 nM
Transient cell system EC50 (nM), rCRHR1; cAMP assay, transiently transfected CHO-K1 cells (rat CRH receptor 1): 163 nM
Transient cell system EC50 (nM), mCRHR1; cAMP assay, transiently transfected CHO-K1 cells (mouse CRH receptor 1): 44 nM
hCRHR1 EC50 (nM); HTRF cAMP assay, CHO-K1 cells stably expressing hCRHR1 [4]: > 5000 nM
B4: SEQ ID NO: 3 (Lipidated UCN2 with X^36 = E; X^40 = E) (reference 1) (peptide)
peptide: IVLSLDVPIGLLQILLEQARARAAREQAK(lip)TNAEILAEV-NH2
modifications: not fully specified; reading uncertain

hCRHR1 EC50 (nM); HTRF cAMP assay, CHO-K1 cells stably expressing hCRHR1 [1]: > 5000 nM
Stable EC50 (nM), hCRHR1; cAMP assay, stable CHO-K1 cells [2]: > 5000 nM
Transient cell system EC50 (nM), hCRHR1; cAMP assay, transiently transfected CHO-K1 cells [2]: 826 nM
Transient cell system EC50 (nM), pCRHR1; cAMP assay, transiently transfected CHO-K1 cells (porcine CRH receptor 1): > 1000 nM
Transient cell system EC50 (nM), rCRHR1; cAMP assay, transiently transfected CHO-K1 cells (rat CRH receptor 1): 175 nM
Transient cell system EC50 (nM), mCRHR1; cAMP assay, transiently transfected CHO-K1 cells (mouse CRH receptor 1): 50 nM
B5: SEQ ID NO: 215, [MeI]VLSLDVPIGLLQILLSQARARAAREQA[K*]TN[Aib]EI[Nle]AEV(NH2) (peptide)
peptide: [NMeI]VLSLDVPIGLLQILLSQARARAAREQAK([AEEA-AEEA-γGlu-γGlu-C20 diacid])TN[Aib]EI[Nle]AEV-NH2
modifications: not fully specified; printed as [MeI]VLSLDVPIGLLQILLSQARARAAREQA[K*]TN[Aib]EI[Nle]AEV(NH_2)
